Drawing on patent US20200369772A1 (ABBA THERAPEUTICS, published 2020), this text covers EC50, binding result and IC50 for six molecules.

Test [1] addresses T1, human PD-L2 (full-length, on cells) (human, UniProt Q9BQ51 20-273).
T1 chain: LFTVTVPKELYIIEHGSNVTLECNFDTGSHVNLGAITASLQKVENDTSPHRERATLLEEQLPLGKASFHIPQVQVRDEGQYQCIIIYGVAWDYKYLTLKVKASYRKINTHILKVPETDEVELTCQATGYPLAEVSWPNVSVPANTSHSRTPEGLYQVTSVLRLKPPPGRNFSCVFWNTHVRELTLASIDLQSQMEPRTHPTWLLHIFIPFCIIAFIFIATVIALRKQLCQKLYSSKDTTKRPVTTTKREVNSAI
Briefly: FACS binding to CHO-K1 cells expressing human PD-L2. A digest of the protocol:
(§1)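 CHO-K1 cells stably expressing full-length human PD-L2 were stained for 20 min at 4° C with an APC-labelled anti-rat IgG or anti-human IgG Fc suited to the antibody format. Binding was read by flow cytometry on a BD FACSCalibur, and binding EC50 was obtained by non-linear fitting of percentage of maximal binding against concentration in GraphPad Prism.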
For orientation: In flow cytometry, cells or beads pass a laser one at a time.

Test [2] addresses T2, human PD-L2 (full-length, on cells) (human, UniProt Q9BQ51 20-273).
T2 construct: whole, on cells; CHO-K1 cells stably expressing full-length human PD-L2; also endogenous on NCI-H226 and transfected in Jurkat cells; also called hPD-L2; CHO-K1/hPD-L2
T2 sequence (looked up): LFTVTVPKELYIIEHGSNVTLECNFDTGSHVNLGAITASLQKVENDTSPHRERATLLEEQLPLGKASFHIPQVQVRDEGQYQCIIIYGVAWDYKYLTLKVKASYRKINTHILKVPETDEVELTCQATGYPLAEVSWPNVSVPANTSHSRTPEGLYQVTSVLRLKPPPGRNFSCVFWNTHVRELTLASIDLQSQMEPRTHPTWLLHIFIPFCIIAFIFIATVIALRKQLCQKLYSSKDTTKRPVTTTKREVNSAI
Briefly: FACS binding on cells expressing human PD-L2 (per the examples).

For test [3], the target named is T3, mouse PD-L2 (full-length, on cells) (mouse, UniProt Q9WUL5 20-247).
T3 construct: whole, on cells; HEK293 cells stably expressing full-length mouse PD-L2
T3 sequence (looked up): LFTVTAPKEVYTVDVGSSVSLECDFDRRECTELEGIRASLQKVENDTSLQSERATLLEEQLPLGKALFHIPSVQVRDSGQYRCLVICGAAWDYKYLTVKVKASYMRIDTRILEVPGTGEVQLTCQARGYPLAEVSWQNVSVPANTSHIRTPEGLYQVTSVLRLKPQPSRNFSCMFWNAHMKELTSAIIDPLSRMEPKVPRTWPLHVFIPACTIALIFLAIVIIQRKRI
Briefly: FACS on HEK293T cells expressing mouse PD-L2. On the procedure:
HEK293T cells expressing mouse PD-L2 were incubated with chimeric anti-PD-L2 antibodies. Cells were washed and binding was detected with an FITC-labelled anti-rat IgG Ab (Thermo Fisher Scientific). Flow cytometric analyses were performed using a FACSCalibur flow cytometer (Becton Dickinson). PE-labelled anti-mouse PD-L2 clone TY25 served as positive control. All peaks overlap except for the positive control in FIG. 6F.
(§2) The ability of anti-PD-L2 antibodies binding to mouse PD-L2, human PD-L1 or cyno PD-L2 was determined by FACS. HEK293 cells stably expressing full-length monkey PD-L2, mouse PD-L2 or human PD-L1 were established, subcloned and verified. For binding assay, 1.5×10⁵ cells in 100 μl of FACSwash buffer were incubated with individual anti-PD-L2 antibodies (0.5 μg/ml) for 30 min. After three times of washing, the cells were re-suspended in FACSwash buffer containing FITC-labelled goat-anti-rat IgG (Thermo Fisher, 1:1000) or APC-labelled goat-anti-ratIgG (Biolegend, Clone Poly4054) at a 1:2000 dilution for 20 min at 4° C., washed three times and subsequently subjected to FACS analysis. FACS data was analysed using FlowJo Software and depicted as histograms including secondary antibody only controls.

The target in test [4] is T4, human PD-L1 (full-length, on cells) (human, UniProt Q9NZQ7 19-290).
T4 construct: whole, on cells; HEK293 cells stably expressing full-length human PD-L1
T4 sequence (Q9NZQ7 19-290): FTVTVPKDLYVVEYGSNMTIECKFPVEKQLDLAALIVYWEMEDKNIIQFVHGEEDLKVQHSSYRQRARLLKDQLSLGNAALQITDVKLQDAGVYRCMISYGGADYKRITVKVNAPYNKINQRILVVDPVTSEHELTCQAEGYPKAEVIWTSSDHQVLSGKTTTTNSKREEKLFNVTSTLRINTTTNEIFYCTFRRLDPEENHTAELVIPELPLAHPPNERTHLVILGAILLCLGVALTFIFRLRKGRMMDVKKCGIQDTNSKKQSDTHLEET
The test is described as follows: FACS on HEK293T cells expressing human PD-L1. On the procedure: HEK293T cells expressing human PD-L1 were incubated with chimeric anti-PD-L2 antibodies. Cells were washed and binding was detected with an FITC-labelled anti-rat IgG Ab (Thermo Fisher Scientific). Flow cytometric analyses were performed using a FACSCalibur flow cytometer (Becton Dickinson). PE-labelled anti-human PD-L1 clone MIH1 served as positive control. All peaks overlap except for the positive control in FIG. 7F.
as §2

Test [5] has as its target T5, recombinant human PD-L2-Fc-biotin (human, UniProt Q9BQ51 20-220, biotin).
T5 chain: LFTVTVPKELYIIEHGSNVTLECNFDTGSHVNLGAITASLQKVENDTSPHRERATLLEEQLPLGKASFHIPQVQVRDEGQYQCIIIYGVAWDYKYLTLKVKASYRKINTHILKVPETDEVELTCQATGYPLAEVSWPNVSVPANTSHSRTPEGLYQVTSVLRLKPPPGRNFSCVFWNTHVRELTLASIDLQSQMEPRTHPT
The test is described as follows: blocking of hPD-L2 binding to HEK293-hPD-1 cells. A digest of the protocol: (§3)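 Serially diluted antibody (0.03 ng/ml-0.5 μg/ml) was preincubated for 60 min at 4° C with recombinant human PD-L2-Fc-biotin (5 ng/ml, 100 pM) in 100 μl. The mixture was added for 30 min at 4° C to 1.5×10⁵ HEK293 cells stably expressing human PD-1. Bound ligand was detected with fluorochrome-conjugated streptavidin (20 min, 4° C) by flow cytometry, with unspecific IgG wells setting 0% and 100% binding. IC50 came from non-linear curve fitting in GraphPad Prism.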

In test [6] the target is T4, human PD-L1 (full-length, on cells). The test is described as follows: FACS on HEK293 cells stably expressing full-length human PD-L1. On the procedure: as §2
Test [7] deals with T1, human PD-L2 (full-length, on cells). The test is described as follows: FACS, CHO-K1 expressing human PD-L2. A digest of the protocol: as §1
For test [8] the target is unchanged. Briefly: blocking of hPD-1 binding to CHO-K1/hPD-L2 cells. A digest of the protocol:
(§4)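 IC50 values were obtained with GraphPad Prism by non-linear curve fitting of flow cytometry data on PD-1 binding to PD-L2-expressing cells. For this, 1.5×10⁵ CHO-K1 cells stably carrying human PD-L2 were incubated for 30 min at 4° C with antibody in serial dilutions from 0.25 ng/ml to 4 μg/ml, then for 30 min at 4° C with 0.5 μg/ml recombinant human PD-1-mouse Fc. Detection used fluorochrome-conjugated anti-mouse IgG2a at 1:200 for 20 min at 4° C, with reference wells fixing 0% and 100% binding.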

For test [9], the target named is T3, mouse PD-L2 (full-length, on cells). The test is described as follows: FACS on HEK293 cells stably expressing full-length mouse PD-L2. On the procedure: as §2
In test [10] the target is T1, human PD-L2 (full-length, on cells). The test is described as follows: FACS, NCI-H226 cells. The method in brief: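 Flow cytometry on a BD FACSCalibur was used to measure binding to endogenous PD-L2 on NCI-H226 human lung squamous carcinoma cells, with 1.5×10⁵ cells used. Staining was done with APC-labelled goat anti-rat IgG at 1:2000 for 20 min at 4° C. The binding EC50 was obtained in GraphPad Prism by non-linear fitting of percentage of maximal binding against concentration.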

Test [11] has the same target. The test is described as follows: FACS binding to CHO-K1 cells expressing human PD-L2. The method in brief: as §1
The target of test [12] is T5, recombinant human PD-L2-Fc-biotin. Briefly: FACS blocking of hPD-L2 binding to HEK293T-hPD-1; low antigen concentration. The method in brief: as §3
Test [13] has as its target T1, human PD-L2 (full-length, on cells). The test is described as follows: FACS blocking of PD-1 binding to CHO-K1/hPD-L2; high antigen concentration. A digest of the protocol:
as §4

For test [14], the target named is T2, human PD-L2 (full-length, on cells). The test is described as follows: FACS on CHO-K1 cells expressing human PD-L2, against the parental antibody. The method in brief:
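Sequence-optimised antibodies expressed in HEK293 cells and their parental antibodies were incubated at different concentrations with CHO-K1 cells expressing human PD-L2. Cells were washed and binding was detected with an APC-labelled anti-human Fc antibody by flow cytometry on a FACSCalibur.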

Usually EC50 stands for the concentration needed to bring the measured effect to its halfway point. Low readings indicate greater potency, high ones weaker potency. As usually defined, the IC50 is the point on the concentration scale where inhibition reaches its midpoint.

B1: 10D1-G1 N31Q.N92Q.LC (antibody, V domains shown)
VH: QVQLQESGPGLVKPSGTLSLTCAVSGGSISSSYWWSWVRQPPGKGLEWIGEIFHIGSTNYNPSLRSRVTISVVKSKNQFSLNLNSVTAADTAVYFCARVSGGYGYFSGMDVWGQGTTVTVSS
VL: DIQMTQSPSSLSASVGDRVTITCRASQGIRQDLGWYQQKPGKAPKRLIYGASSLQSGVPSRFSGSGSGTEFTLTISSLQPEDFATYYCLQHQSYPRTFGQGTKVEIK
notes: Optimized variant of 10D1-G1; also called 10D1-G1 N31Q.N920.LC
As to B1, the EC50 in test [1] was 0.32 nM. For the same molecule, the binding result in [2] was “binds”; in test [3], “no binding”; in test [4], “no binding”.

B2: 10A9-D2 N31Q.LC (antibody, V domains shown)
VH: QVQLQESGPGLVKPSETLSLTCAVSGGSISSSYWWSWVRQPPGKGLEWVGEVFHVGVTNYNPSLKSRVTISVDKSKNQFSLKLTSVTAADTAVYYCARVTGTTGYYHGLDVWGQGTTVTVFS
VL: DIQMTQSPSSLSASVGDRVTITCRASQGIRQDLGWYQQKPGKVPKRLIYAASSLQSGIPSRFSGSGSGTEFTLTISSLQPEDFATYYCLQHNNYPRTFGQGTKVEIK
notes: Optimized variant of 10A9-D2
In [1], B2 had a concentration for a half-maximal effect (EC50) of 0.32 nM. In addition, the binding result in test [2] was “binds”; in test [3] it was “no binding”; in test [4], “no binding”.

B3: 2C4-E4 (antibody, V domains shown)
VH: QVQLVQSGAEVKKPGASVKVSCKASGYTFTGYVMHWVRQAPGQRLEWMGWINADNGITKYSQKFQGRVTITRDTSASTAYMELTNLRSEDTAVYYCARATRGFGEFYFDYWGQGNLVTVSS
VL: DIQMTQSPSTLSASVGDRVTITCRASQTISSWLAWYQQKPGKAPNLLIYKASSLESGVPSRFSGSGSGTEFTLTISSLQPDDFATYYCQQYYSYWTFGQGTKVEIK
notes: Both formats under this entry
Regarding B3, the binding result in test [2] is “binds”; in test [6], “no binding (tested: 0.5 µg/ml)”; in test [9], “no binding (tested: 0.5 µg/ml)”. Besides, the IC50 in [5] turned out to be 0.02 nM; in [8] it was 0.53 nM; in test [12] it was 0.0215 nM; in test [13], 0.612 nM. The EC50 in test [7] amounted to 0.485 nM; in [10] it was 0.134 nM; in test [11], 0.45 nM.

B4: 19B3-B3 M23K.M63L.HC (antibody, V domains shown)
VH: QVQLVQSGAEVKKPGASVKVSCKASGYTFTNYAIHWVRQAPGQRLEWMGWINTGLGKPKYSQLFQDRVTITRDTSASTASMELSGLRSDDTAVYYCARVGWELYFDYWGQGTLVTVSS
VL: DIQMTQSPSTLSASVGDRVTITCRASQSISSLLAWYQQKPGKAPKLLIYKASSLESGVPSRFSGSGSGTEFTLTISSLQPDDFATYFCQQYNSYWTFGQGTKVEIK
notes: Optimized variant of 19B3-B3
As for B4, in [1], the EC50 worked out at 0.38 nM. Also, the figures for the binding result in [2], in [3] and in test [4] were “binds”, “no binding” and “no binding”, respectively.

B5: 19B3-B3 N92Q.LC.M23K.M63L.HC (antibody, V domains shown)
VH: QVQLVQSGAEVKKPGASVKVSCKASGYTFTNYAIHWVRQAPGQRLEWMGWINTGLGKPKYSQLFQDRVTITRDTSASTASMELSGLRSDDTAVYYCARVGWELYFDYWGQGTLVTVSS
VL: DIQMTQSPSTLSASVGDRVTITCRASQSISSLLAWYQQKPGKAPKLLIYKASSLESGVPSRFSGSGSGTEFTLTISSLQPDDFATYFCQQYQSYWTFGQGTKVEIK
notes: Optimized variant of 19B3-B3
As for B5, the values for the binding result in [3], in test [4] and in [14] were “no binding”, “no binding” and “binds”, respectively.

B6: 19B3-B3 N92Y.LC.M23K.M63L.HC (antibody, V domains shown)
VH: QVQLVQSGAEVKKPGASVKVSCKASGYTFTNYAIHWVRQAPGQRLEWMGWINTGLGKPKYSQLFQDRVTITRDTSASTASMELSGLRSDDTAVYYCARVGWELYFDYWGQGTLVTVSS
VL: DIQMTQSPSTLSASVGDRVTITCRASQSISSLLAWYQQKPGKAPKLLIYKASSLESGVPSRFSGSGSGTEFTLTISSLQPDDFATYFCQQYYSYWTFGQGTKVEIK
notes: Optimized variant of 19B3-B3
On to B6, for which the binding result in test [3] was “no binding”; in [4], “no binding”; in [14], “binds”.
